system: Escherichia coli TOP10; assay: shrunken log2 fold change of peptide-encoding DNA abundance (4.5 h post-induction vs induction); higher = less antimicrobial activity (less host growth inhibition); settings: time post-induction: 4.5 h; library: site-saturation at positions 5, 18, 19, 20
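Note: peptides expressed intracellularly from a pBAD plasmid library in pooled LB shake-flask culture, induced with 0.3% L-arabinose, DNA abundance read by NGS, three biological replicates, DESeq2 with apeglm shrinkage.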

| Sequence | shrunken log2 fold change |
| --- | --- |
| RRIRMRPPRLPRPRPRPDQAPRP | 0.357 |
| RRIRRRPPRLPRPRPRPWKQPRP | -0.0204 |
| RRIRPRPPRLPRPRPRPVMSPRP | 0.0198 |
| RRIRWRPPRLPRPRPRPICNPRP | -0.0133 |
| RRIRWRPPRLPRPRPRPKDKPRP | 0.077 |
| RRIRPRPPRLPRPRPRPVMRPRP | 0.95 |
| RRIRLRPPRLPRPRPRPLHLPRP | -0.21 |
| RRIRQRPPRLPRPRPRPWWYPRP | -0.0791 |
| RRIRLRPPRLPRPRPRPHHVPRP | -0.272 |
| RRIRLRPPRLPRPRPRPGEGPRP | -0.036 |
| RRIRIRPPRLPRPRPRPFAEPRP | -0.221 |
| RRIRHRPPRLPRPRPRPHCMPRP | -0.0295 |
| RRIRTRPPRLPRPRPRPKRTPRP | -0.132 |
| RRIRARPPRLPRPRPRPSPKPRP | 0.303 |
| RRIRVRPPRLPRPRPRPFITPRP | -0.334 |
| RRIRYRPPRLPRPRPRPFCNPRP | -0.0455 |
| RRIRKRPPRLPRPRPRPWFVPRP | -0.036 |
| RRIRDRPPRLPRPRPRPCYWPRP | 0.00776 |
| RRIRSRPPRLPRPRPRPDVDPRP | 0.0112 |
| RRIRARPPRLPRPRPRPMPSPRP | 0.341 |
| RRIRVRPPRLPRPRPRPDDLPRP | -0.0407 |
| RRIRKRPPRLPRPRPRPTNQPRP | 0.289 |
| RRIRTRPPRLPRPRPRPRNKPRP | -0.342 |
| RRIRERPPRLPRPRPRPFTCPRP | -0.00783 |
| RRIRYRPPRLPRPRPRPYNIPRP | -0.426 |

| Sequence | shrunken log2 fold change |
| --- | --- |
| RRIRHRPPRLPRPRPRPCGWPRP | 0.353 |
| RRIRFRPPRLPRPRPRPMAQPRP | -0.337 |
| RRIRIRPPRLPRPRPRPFCKPRP | -0.893 |
| RRIRPRPPRLPRPRPRPPGPPRP | 0.576 |
| RRIRFRPPRLPRPRPRPWRTPRP | -0.0041 |
| RRIRMRPPRLPRPRPRPVHWPRP | 0.155 |
| RRIRSRPPRLPRPRPRPMMLPRP | 0.15 |
| RRIRERPPRLPRPRPRPARLPRP | 0.361 |
| RRIRGRPPRLPRPRPRPPFNPRP | 1.66 |
| RRIRKRPPRLPRPRPRPRPDPRP | 0.446 |
| RRIRNRPPRLPRPRPRPIIDPRP | -0.361 |
| RRIRARPPRLPRPRPRPKRYPRP | 0.159 |
| RRIRYRPPRLPRPRPRPFWMPRP | -0.297 |
| RRIRSRPPRLPRPRPRPKSGPRP | 0.0485 |
| RRIRDRPPRLPRPRPRPWTLPRP | -0.424 |
| RRIRYRPPRLPRPRPRPQEAPRP | -0.029 |
| RRIRMRPPRLPRPRPRPVQQPRP | 0.113 |
| RRIRCRPPRLPRPRPRPPDVPRP | 0.156 |
| RRIRTRPPRLPRPRPRPCSMPRP | -0.179 |
| RRIRDRPPRLPRPRPRPEYKPRP | 0.27 |
| RRIRTRPPRLPRPRPRPWYPPRP | -0.255 |
| RRIRPRPPRLPRPRPRPCGHPRP | -0.0439 |
| RRIRRRPPRLPRPRPRPAQPPRP | 0.958 |
| RRIRIRPPRLPRPRPRPEVDPRP | -0.0435 |
| RRIRGRPPRLPRPRPRPYAKPRP | -0.0213 |

| Sequence | shrunken log2 fold change |
| --- | --- |
| RRIRWRPPRLPRPRPRPVIKPRP | -0.226 |
| RRIRTRPPRLPRPRPRPNTQPRP | -0.0477 |
| RRIRGRPPRLPRPRPRPGHGPRP | 0.323 |
| RRIRFRPPRLPRPRPRPRVGPRP | 0.24 |
| RRIRWRPPRLPRPRPRPQAFPRP | 0.0509 |
| RRIRERPPRLPRPRPRPKPIPRP | -0.128 |
| RRIRVRPPRLPRPRPRPHEYPRP | -0.419 |
| RRIRWRPPRLPRPRPRPHAPPRP | 0.517 |
| RRIRGRPPRLPRPRPRPIVYPRP | -0.0951 |
| RRIRYRPPRLPRPRPRPIDNPRP | -0.542 |
| RRIRCRPPRLPRPRPRPNCKPRP | -0.138 |
| RRIRKRPPRLPRPRPRPIEDPRP | -0.0345 |
| RRIRARPPRLPRPRPRPWEGPRP | 0.209 |
| RRIRLRPPRLPRPRPRPPIGPRP | 0.142 |
| RRIRLRPPRLPRPRPRPLPPPRP | 0.678 |
| RRIRCRPPRLPRPRPRPAHPPRP | 0.125 |
| RRIRFRPPRLPRPRPRPGELPRP | 0.245 |
| RRIRVRPPRLPRPRPRPGPIPRP | 0.0476 |
| RRIRQRPPRLPRPRPRPNGAPRP | 0.451 |
| RRIRARPPRLPRPRPRPQNGPRP | -0.106 |
| RRIRIRPPRLPRPRPRPMMDPRP | -0.132 |
| RRIRFRPPRLPRPRPRPCMHPRP | -0.111 |
| RRIRKRPPRLPRPRPRPEPDPRP | 0.877 |
| RRIRVRPPRLPRPRPRPWLVPRP | 0.128 |
| RRIRPRPPRLPRPRPRPFQFPRP | -0.467 |

| Sequence | shrunken log2 fold change |
| --- | --- |
| RRIRQRPPRLPRPRPRPIYCPRP | -0.0315 |
| RRIRPRPPRLPRPRPRPQKSPRP | 0.0462 |
| RRIRDRPPRLPRPRPRPYLCPRP | -0.148 |
| RRIRQRPPRLPRPRPRPHHDPRP | -0.000328 |
| RRIRCRPPRLPRPRPRPFQAPRP | 0.0554 |
| RRIRNRPPRLPRPRPRPHLLPRP | -1.08 |
| RRIRPRPPRLPRPRPRPNQWPRP | 0.139 |
| RRIRSRPPRLPRPRPRPEDNPRP | 0.24 |
| RRIRMRPPRLPRPRPRPQDQPRP | 0.228 |
| RRIRVRPPRLPRPRPRPWVQPRP | -0.021 |
| RRIRWRPPRLPRPRPRPSDAPRP | 0.191 |
| RRIRRRPPRLPRPRPRPNDQPRP | 0.261 |
| RRIRPRPPRLPRPRPRPFFAPRP | 0.468 |
| RRIRVRPPRLPRPRPRPQYIPRP | -0.655 |
| RRIRLRPPRLPRPRPRPEHIPRP | 0.0843 |
| RRIRARPPRLPRPRPRPITSPRP | 0.157 |
| RRIRRRPPRLPRPRPRPEIRPRP | 0.0292 |
| RRIRERPPRLPRPRPRPRCIPRP | -0.425 |
| RRIRERPPRLPRPRPRPVTIPRP | -0.233 |
| RRIRQRPPRLPRPRPRPQWNPRP | -0.206 |
| RRIRPRPPRLPRPRPRPSGTPRP | 0.669 |
| RRIRARPPRLPRPRPRPCHSPRP | 0.0213 |
| RRIRERPPRLPRPRPRPSIVPRP | -0.443 |
| RRIRGRPPRLPRPRPRPETYPRP | 0.569 |
| RRIRKRPPRLPRPRPRPLMSPRP | 0.0201 |

| Sequence | shrunken log2 fold change |
| --- | --- |
| RRIRERPPRLPRPRPRPLCVPRP | -0.307 |
| RRIRNRPPRLPRPRPRPISKPRP | -0.472 |
| RRIRIRPPRLPRPRPRPNGDPRP | 8.33e-05 |
| RRIRARPPRLPRPRPRPCVYPRP | 0.121 |
| RRIRYRPPRLPRPRPRPDRAPRP | -0.0598 |
| RRIRQRPPRLPRPRPRPLQFPRP | -0.168 |
| RRIRERPPRLPRPRPRPDPKPRP | 0.00358 |
| RRIRWRPPRLPRPRPRPSMCPRP | -0.16 |
| RRIRPRPPRLPRPRPRPTPVPRP | 0.379 |
| RRIRDRPPRLPRPRPRPHEFPRP | 0.00812 |
| RRIRTRPPRLPRPRPRPPVGPRP | 1.18 |
| RRIRFRPPRLPRPRPRPFCHPRP | -0.433 |
| RRIRRRPPRLPRPRPRPGRYPRP | 0.218 |
| RRIRKRPPRLPRPRPRPYTTPRP | -0.0326 |
| RRIRVRPPRLPRPRPRPNPYPRP | -0.376 |
| RRIRLRPPRLPRPRPRPQQHPRP | -0.212 |
| RRIRDRPPRLPRPRPRPKMQPRP | 0.247 |
| RRIRKRPPRLPRPRPRPCKPPRP | -0.00919 |
| RRIRLRPPRLPRPRPRPMGQPRP | 0.0212 |
| RRIRLRPPRLPRPRPRPYLEPRP | -0.169 |
| RRIRLRPPRLPRPRPRPLRQPRP | 0.385 |
| RRIRIRPPRLPRPRPRPPSNPRP | -0.613 |
| RRIRSRPPRLPRPRPRPYFHPRP | -0.853 |
| RRIRMRPPRLPRPRPRPESQPRP | 2.59 |
| RRIRFRPPRLPRPRPRPALRPRP | 0.276 |

| Sequence | shrunken log2 fold change |
| --- | --- |
| RRIRMRPPRLPRPRPRPLVSPRP | 0.162 |
| RRIRQRPPRLPRPRPRPMAHPRP | 0.00446 |
| RRIRSRPPRLPRPRPRPPQPPRP | 0.432 |
| RRIRFRPPRLPRPRPRPFYIPRP | -0.489 |
| RRIRFRPPRLPRPRPRPPGDPRP | 0.58 |
| RRIRQRPPRLPRPRPRPLMSPRP | -0.0453 |
| RRIRLRPPRLPRPRPRPMFEPRP | -0.00818 |
| RRIRGRPPRLPRPRPRPGPVPRP | 1.24 |
| RRIRTRPPRLPRPRPRPSAIPRP | -0.979 |
| RRIRERPPRLPRPRPRPRNIPRP | -0.095 |
| RRIRFRPPRLPRPRPRPCWCPRP | -0.00345 |
| RRIRQRPPRLPRPRPRPHYSPRP | -0.0998 |
| RRIRPRPPRLPRPRPRPQVDPRP | -0.0328 |
| RRIRMRPPRLPRPRPRPMSSPRP | 0.0418 |
| RRIRYRPPRLPRPRPRPDIHPRP | -0.549 |
| RRIRDRPPRLPRPRPRPRHRPRP | 0.375 |
| RRIRERPPRLPRPRPRPKWEPRP | 0.0179 |
| RRIRQRPPRLPRPRPRPLSEPRP | 0.0232 |
| RRIRSRPPRLPRPRPRPESCPRP | 0.181 |
| RRIRKRPPRLPRPRPRPRVAPRP | 1.11 |
| RRIRLRPPRLPRPRPRPQGHPRP | 0.137 |
| RRIRKRPPRLPRPRPRPWGTPRP | 0.341 |
| RRIRIRPPRLPRPRPRPLMAPRP | -0.408 |
| RRIRHRPPRLPRPRPRPENPPRP | -0.277 |
| RRIRFRPPRLPRPRPRPSVLPRP | -0.246 |

Reference: the supplement of paper PMC9112550, “Optimization of the antimicrobial peptide Bac7 by deep mutational scanning” (BMC Biology, 2022)
